Kd data for 1 molecule are collected here from publication PMC11826918, “Generation of antagonistic biparatopic anti-CD30 antibody from an agonistic antibody by precise epitope determination and utilization of structural characteristics of CD30 molecule” (Antibody Therapeutics, 2025).

Holding throughout (assay): SPR; Biacore T200; antibody captured on anti-human Fc (CM5 chip); CD30-MBP flowed at 0, 2, 20 nM (T426: 0, 20, 200 nM), contact 90 s, dissociation 300 s; fit to a 1:1 binding mode; rough-level analysis
Conditions in all cases: both partners purified
(In general: SPR reads the build-up and loss of mass on a sensor chip optically.)

Experiment [1] has as its target T1, BpT405-6.
T1 construct: T405 Fv, N side; T6 Fv, C side; one Fab of each Fv; knobs-into-holes Fc; source: Expi293 fragments joined by intein-mediated protein trans-splicing, purified (Superdex 200 Increase); copies: + + +

Experiment [2] deals with T2, BpT105-405.
T2 construct: T105 Fv, N side; T405 Fv, C side; one Fab of each Fv; knobs-into-holes Fc; source: Expi293 fragments joined by intein-mediated protein trans-splicing, purified (Superdex 200 Increase); copies: + + +

The target of experiment [3] is T3, BpT107-104.
T3 construct: T107 Fv, N side; T104 Fv, C side; one Fab of each Fv; knobs-into-holes Fc; source: Expi293 fragments joined by intein-mediated protein trans-splicing, purified (Superdex 200 Increase); copies: + + +

Experiment [4] addresses T4, BpT25-427.
T4 construct: T25 Fv, N side; T427 Fv, C side; one Fab of each Fv; knobs-into-holes Fc; source: Expi293 fragments joined by intein-mediated protein trans-splicing, purified (Superdex 200 Increase); copies: + + +

Experiment [5] addresses T5, BpT105-107.
T5 construct: T105 Fv, N side; T107 Fv, C side; one Fab of each Fv; knobs-into-holes Fc; source: Expi293 fragments joined by intein-mediated protein trans-splicing, purified (Superdex 200 Increase); copies: + + +

In experiment [6] the target is T6, BpT104-25.
T6 construct: T104 Fv, N side; T25 Fv, C side; one Fab of each Fv; knobs-into-holes Fc; source: Expi293 fragments joined by intein-mediated protein trans-splicing, purified (Superdex 200 Increase); copies: + + +

Experiment [7] deals with T7, BpT427-405.
T7 construct: T427 Fv, N side; T405 Fv, C side; one Fab of each Fv; knobs-into-holes Fc; source: Expi293 fragments joined by intein-mediated protein trans-splicing, purified (Superdex 200 Increase); copies: + + +

Experiment [8] addresses T8, BpT107-427.
T8 construct: T107 Fv, N side; T427 Fv, C side; one Fab of each Fv; knobs-into-holes Fc; source: Expi293 fragments joined by intein-mediated protein trans-splicing, purified (Superdex 200 Increase); copies: + + +

The target in experiment [9] is T9, BpT10-427.
T9 construct: AC10 Fv, N side; T427 Fv, C side; one Fab of each Fv; knobs-into-holes Fc; source: Expi293 fragments joined by intein-mediated protein trans-splicing, purified (Superdex 200 Increase); copies: + + +
T9 sequence (chain, as listed by the source, chain 1 of 4): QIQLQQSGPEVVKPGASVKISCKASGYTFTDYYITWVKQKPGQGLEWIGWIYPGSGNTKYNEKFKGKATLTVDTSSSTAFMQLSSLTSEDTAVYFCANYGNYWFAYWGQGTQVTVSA
T9 sequence (chain, as listed by the source, chain 2 of 4): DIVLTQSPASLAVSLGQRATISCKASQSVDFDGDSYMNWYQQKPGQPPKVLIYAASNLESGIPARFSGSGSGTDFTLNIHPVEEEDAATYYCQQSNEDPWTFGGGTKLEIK
T9 sequence (chain, as listed by the source, chain 3 of 4): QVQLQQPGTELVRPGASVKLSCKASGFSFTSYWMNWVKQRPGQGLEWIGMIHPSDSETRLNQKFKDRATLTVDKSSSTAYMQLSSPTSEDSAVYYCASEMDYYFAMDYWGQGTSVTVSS
T9 sequence (chain, as listed by the source, chain 4 of 4): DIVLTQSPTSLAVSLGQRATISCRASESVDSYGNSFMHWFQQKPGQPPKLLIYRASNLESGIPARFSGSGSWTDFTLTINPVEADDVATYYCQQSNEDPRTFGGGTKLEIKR

T4 sequence (chain, as listed by the source, chain 1 of 4): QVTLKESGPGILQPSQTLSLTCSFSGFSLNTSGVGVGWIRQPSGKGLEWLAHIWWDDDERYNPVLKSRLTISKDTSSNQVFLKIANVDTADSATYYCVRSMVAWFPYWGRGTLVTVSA
T4 sequence (chain, as listed by the source, chain 2 of 4): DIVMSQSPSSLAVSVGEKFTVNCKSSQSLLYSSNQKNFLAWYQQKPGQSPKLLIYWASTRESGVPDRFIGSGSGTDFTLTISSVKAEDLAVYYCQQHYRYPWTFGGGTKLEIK
T3 sequence (chain, as listed by the source, chain 1 of 4): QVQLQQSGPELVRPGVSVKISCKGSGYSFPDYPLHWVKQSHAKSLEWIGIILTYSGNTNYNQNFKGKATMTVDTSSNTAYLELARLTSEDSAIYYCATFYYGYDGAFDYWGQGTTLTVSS
T3 sequence (chain, as listed by the source, chain 2 of 4): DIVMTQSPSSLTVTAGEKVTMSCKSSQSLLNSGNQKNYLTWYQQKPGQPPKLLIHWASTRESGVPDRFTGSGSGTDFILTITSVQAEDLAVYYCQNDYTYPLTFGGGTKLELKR
T3 sequence (chain, as listed by the source, chain 3 of 4): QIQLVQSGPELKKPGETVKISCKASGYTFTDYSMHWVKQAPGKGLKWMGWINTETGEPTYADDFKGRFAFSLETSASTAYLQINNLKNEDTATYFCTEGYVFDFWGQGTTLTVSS
T3 sequence (chain, as listed by the source, chain 4 of 4): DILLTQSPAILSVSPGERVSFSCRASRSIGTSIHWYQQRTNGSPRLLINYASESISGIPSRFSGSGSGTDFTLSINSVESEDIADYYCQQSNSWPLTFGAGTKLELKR
T5 sequence (chain, as listed by the source, chain 1 of 4): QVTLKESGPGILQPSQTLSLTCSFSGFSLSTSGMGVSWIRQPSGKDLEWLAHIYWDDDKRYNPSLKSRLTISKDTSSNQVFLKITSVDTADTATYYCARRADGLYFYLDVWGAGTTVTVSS
T5 sequence (chain, as listed by the source, chain 2 of 4): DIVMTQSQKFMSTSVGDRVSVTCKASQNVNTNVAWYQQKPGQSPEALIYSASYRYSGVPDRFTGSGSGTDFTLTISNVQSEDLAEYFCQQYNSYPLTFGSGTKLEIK

B1: Maltose-binding protein-fused CD30 (domain or fragment)
chain: FPQDRPFEDTCHGNPSHYYDKAVRRCCYRCPMGLFPTQQCPQRPTDCRKQCEPDYYLDEADRCTACVTCSRDDLVEKTPCAWNSSRVCECRPGMFCSTSAVNSCARCFFHSVCPAGMIVKFPGTAQKNTVCEPASPGVSPACASPENCKEPSSGTIPQAKPTPVSPATSSASTMPVRGGTRLAQEAASKLTRAPDSPSSVGRPSSDPGLSPTQPCPEGSGDCRKQCEPDYYLDEAGRCTACVSCSRDDLVEKTPCAWNSSRTCECRPGMICATSATNSCARCVPYPICAAETVTKPQDMAEKDTTFEAPPLGTQPDCN
modifications: Construct 1-336 includes signal peptide 1-18, taken as cleaved on secretion; C-terminal MBP carrier and His tag left out; disulfide-bonded, likely glycosylated (Expi293)
As to B1, the Kd (as a rule, the equilibrium constant for the complex coming apart) in experiment [1] worked out at 0.44 nM; in experiment [2], 0.67 nM; in experiment [3], 0.4 nM; in [4], 0.57 nM; in experiment [5], 0.26 nM; in [6] it was 0.5 nM. Besides, the Kd was determined as 0.31 nM in experiment [7], 0.6 nM in experiment [8] and 0.58 nM in experiment [9].
